Measurements: paper PMC10786891, “Massively parallel profiling of RNA-targeting CRISPR-Cas13d”
Positions count from the first letter of the chain named. In names and notes the source's numbering stands.

T1: EsCas13d, nuclease-dead (Eubacterium siraeum, UniProt B0MS50, R295A;H300A;R849A;H854A)
T1 sequence: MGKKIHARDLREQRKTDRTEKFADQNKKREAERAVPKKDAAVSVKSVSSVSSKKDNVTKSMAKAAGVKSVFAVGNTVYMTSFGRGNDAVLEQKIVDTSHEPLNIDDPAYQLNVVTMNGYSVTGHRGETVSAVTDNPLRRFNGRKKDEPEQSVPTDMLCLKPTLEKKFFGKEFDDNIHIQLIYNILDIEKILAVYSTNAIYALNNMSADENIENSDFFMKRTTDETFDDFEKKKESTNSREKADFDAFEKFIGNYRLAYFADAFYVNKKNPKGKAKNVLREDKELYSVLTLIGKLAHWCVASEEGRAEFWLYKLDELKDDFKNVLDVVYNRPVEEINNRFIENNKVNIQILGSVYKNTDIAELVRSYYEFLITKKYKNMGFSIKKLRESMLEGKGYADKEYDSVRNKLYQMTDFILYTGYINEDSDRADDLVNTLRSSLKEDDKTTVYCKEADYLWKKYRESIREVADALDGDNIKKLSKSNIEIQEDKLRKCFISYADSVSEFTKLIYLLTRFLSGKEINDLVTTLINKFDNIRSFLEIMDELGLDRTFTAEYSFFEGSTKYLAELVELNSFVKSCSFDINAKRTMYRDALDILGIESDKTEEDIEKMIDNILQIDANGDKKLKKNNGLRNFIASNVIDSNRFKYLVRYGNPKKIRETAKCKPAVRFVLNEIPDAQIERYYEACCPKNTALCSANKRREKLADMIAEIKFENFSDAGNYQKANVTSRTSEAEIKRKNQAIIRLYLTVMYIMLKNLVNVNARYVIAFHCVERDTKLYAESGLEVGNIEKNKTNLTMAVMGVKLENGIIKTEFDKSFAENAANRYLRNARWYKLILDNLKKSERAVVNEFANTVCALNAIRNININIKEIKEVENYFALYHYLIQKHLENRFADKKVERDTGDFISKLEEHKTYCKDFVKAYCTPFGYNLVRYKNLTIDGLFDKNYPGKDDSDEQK

B1: target 1 A1G,U8A (mixed)
RNA 1: CACCCGUGCAAAAAUGCAGGGGUCUAAAACUGAGCGGAUAACCUCUCUAUGG
RNA 2: GGGAAUGGAUCCACAUCUACGAAUUCGUACCAUAGAGAGGUUAACCGCUCGCCGAGAUCGGAAGAGCACACGU
B2: target 1 C7U,U11C (mixed)
RNA 1: B1 RNA 1
RNA 2: B1 RNA 2 with U41C, A44U, C45U, G51A
B3: target 1 U8A (mixed)
RNA 1: B1 RNA 1
RNA 2: B1 RNA 2 with G51A
B4: target 1 G12U,C21U (mixed)
RNA 1: B1 RNA 1
RNA 2: B1 RNA 2 with C31U, G40U, A44U, G51A
B5: target 1 insG 3' of 19,insG 3' of 9 (mixed)
RNA 1: B1 RNA 1
RNA 2: GGGAAUGGAUCCACAUCUACGAAUUCGUACCAUGAGAGAGGUUAGUCCGCUCACCGAGAUCGGAAGAGCACACGU
B6: target 1 U8C,A20U (mixed)
RNA 1: B1 RNA 1
RNA 2: B1 RNA 2 with A32U, A44C, G51A
B7: target 1 G15C,A16G (mixed)
RNA 1: B1 RNA 1
RNA 2: B1 RNA 2 with A36G, G37C, A44U, G51A
B8: target 1 A1C,U8A (mixed)
RNA 1: B1 RNA 1
RNA 2: B1 RNA 2 with G51C
B9: target 1 U3C,U8G (mixed)
RNA 1: B1 RNA 1
RNA 2: B1 RNA 2 with A44G, U49C, G51A
B10: target 1 U3C,G5A (mixed)
RNA 1: B1 RNA 1
RNA 2: B1 RNA 2 with A44U, G47A, U49C, G51A
B11: target 1 insU 3' of 15,insG 3' of 7 (mixed)
RNA 1: B1 RNA 1
RNA 2: B5 RNA 2 with G34A, A35G, G36A, A37G, G38U, G45U, U46C, C47G
B12: target 1 U3A,C7A (mixed)
RNA 1: B1 RNA 1
RNA 2: B1 RNA 2 with A44U, C45A, U49A, G51A
B13: target 3 U2A,A5G (mixed)
RNA 1: CACCCGUGCAAAAUUGCAGGGGUCUAAAACGACCUGAAUAUUUCAGAUCAAA
RNA 2: GGGAAUGGAUCCACAUCUACGAAUUCGUUUUUGAUCUGAAAUAUUCGGGACUGCAGAUCGGAAGAGCACACGU
B14: target 3 insC 3' of 22,insU 3' of 5 (mixed)
RNA 1: B13 RNA 1
RNA 2: GGGAAUGGAUCCACAUCUACGAAUUCGUUUCUUGAUCUGAAAUAUUCAUGGUCUGCAGAUCGGAAGAGCACACGU
B15: target 3 insC 3' of 8,insA 3' of 7 (mixed)
RNA 1: B13 RNA 1
RNA 2: GGGAAUGGAUCCACAUCUACGAAUUCGUUUUUGAUCUGAAAUAUCUACAGGUCUGCAGAUCGGAAGAGCACACGU
B16: target 3 C6G,A11C (mixed)
RNA 1: B13 RNA 1
RNA 2: B13 RNA 2 with A41C, C46G, G47A, A50U
B17: target 3 G4C,U8G (mixed)
RNA 1: B13 RNA 1
RNA 2: B13 RNA 2 with U44G, G47A, G48C, A50U
B18: target 3 insA 3' of 10,insU 3' of 5 (mixed)
RNA 1: B13 RNA 1
RNA 2: B15 RNA 2 with U44A, C45U, A47C, C48A, A49U
B19: target 3 insG 3' of 22,insG 3' of 6 (mixed)
RNA 1: B13 RNA 1
RNA 2: B14 RNA 2 with C31G, A48G, U49A
B20: target 3 insC 3' of 21,insG 3' of 6 (mixed)
RNA 1: B13 RNA 1
RNA 2: B14 RNA 2 with C31U, U32C, A48G, U49A
B21: target 3 insA 3' of 22,insC 3' of 22 (mixed)
RNA 1: B13 RNA 1
RNA 2: GGGAAUGGAUCCACAUCUACGAAUUCGUUUACUUGAUCUGAAAUAUUCAGGUCUGCAGAUCGGAAGAGCACACGU
B22: target 3 insG 3' of 5,insU 3' of 5 (mixed)
RNA 1: B13 RNA 1
RNA 2: B15 RNA 2 with C45U, U46C, C48G, A49U
B23: target 3 insA 3' of 10,insG 3' of 2 (mixed)
RNA 1: B13 RNA 1
RNA 2: B15 RNA 2 with U44A, C45U, A47C, C48A, A49G, G51U, U52G
B24: target 3 insA 3' of 14,insC 3' of 3 (mixed)
RNA 1: B13 RNA 1
RNA 2: B15 RNA 2 with U42A, A43U, U44A, C45U, A47C, C48A, A49G, G51C
B25: target 3 G3U,A5U (mixed)
RNA 1: B13 RNA 1
RNA 2: B13 RNA 2 with G47U, G49U, A50U
B26: target 3 insG 3' of 8,insU 3' of 6 (mixed)
RNA 1: B13 RNA 1
RNA 2: B15 RNA 2 with C45G, A47C, C48U
B27: target 3 insG 3' of 6,insC 3' of 4 (mixed)
RNA 1: B13 RNA 1
RNA 2: B15 RNA 2 with C45U, U46C, A47G, C48A, A49G, G50C
B28: target 3 insA 3' of 6,insA 3' of 4 (mixed)
RNA 1: B13 RNA 1
RNA 2: B15 RNA 2 with C45U, U46C, C48A, A49G, G50A
B29: target 3 insG 3' of 7,insC 3' of 4 (mixed)
RNA 1: B13 RNA 1
RNA 2: B15 RNA 2 with C45U, U46G, A47C, C48A, A49G, G50C
B30: target 3 insG 3' of 22,insU 3' of 22 (mixed)
RNA 1: B13 RNA 1
RNA 2: B21 RNA 2 with A31G, C32U
B31: target 3 U8G,U22C (mixed)
RNA 1: B13 RNA 1
RNA 2: B13 RNA 2 with U30C, U44G, G47A, A50U
B32: target 3 insA 3' of 4,insC 3' of 4 (mixed)
RNA 1: B13 RNA 1
RNA 2: B15 RNA 2 with C45U, U46C, C48G, G50C
B33: target 3 insU 3' of 9,insC 3' of 7 (mixed)
RNA 1: B13 RNA 1
RNA 2: B15 RNA 2 with C45U, A47C

Target: T1, EsCas13d, nuclease-dead
Assay: crRNA (strand 1, pre-loaded); Mg2+; 40 mM Tris-HCl pH 7.5, 150 mM NaCl, 6 mM MgCl2, 1 mM DTT, 0.1% Tween-20, 0.2 mg/ml BSA; 25 C; 10 min per concentration, then washed
Conditions: tags: His6-TwinStrep-SUMO cleaved; N-terminal SNAP kept (SNAP-Surface 488); label: 3' end held by stalled T7 RNA polymerase

Row | Binder | Kd
1 | B1 | 31.7 ± 1.8 nM
2 | B2 | 8.7 ± 0.4 nM
3 | B3 | 22.2 ± 1.7 nM
4 | B4 | 7.4 ± 0.5 nM
5 | B5 | 44 ± 5 nM
6 | B6 | 80 ± 8 nM
7 | B7 | 71 ± 11 nM
8 | B8 | 25.5 ± 1.8 nM
9 | B9 | 18.6 ± 1.2 nM
10 | B10 | 67 ± 22 nM
11 | B11 | 10.7 ± 0.4 nM
12 | B12 | 7 ± 0.4 nM
13 | B13 | 3.12 ± 0.355 nM
14 | B14 | 12.3 ± 1.6 nM
15 | B15 | 40.5 ± 4 nM
16 | B16 | 30.1 ± 4.65 nM
17 | B17 | 69 ± 8 nM

Row | Binder | Kd
18 | B18 | 58.5 ± 6.5 nM
19 | B19 | 90 ± 41.5 nM
20 | B20 | 100 ± 40 nM
21 | B21 | 15 ± 1.4 nM
22 | B22 | 18.1 ± 2.95 nM
23 | B23 | 42 ± 6.5 nM
24 | B24 | 59 ± 9.5 nM
25 | B25 | 32.5 ± 4.5 nM
26 | B26 | 28.3 ± 3.3 nM
27 | B27 | 13.2 ± 1.5 nM
28 | B28 | 10.8 ± 0.9 nM
29 | B29 | 64 ± 8 nM
30 | B30 | 28 ± 4.5 nM
31 | B31 | 90 ± 40 nM
32 | B32 | ~110 nM
33 | B33 | 100 ± 21 nM
